Positions count from the first letter of the chain named.
T1: hVEGF-A (8-109) (human, UniProt P15692 214-315)
T1 sequence (looked up): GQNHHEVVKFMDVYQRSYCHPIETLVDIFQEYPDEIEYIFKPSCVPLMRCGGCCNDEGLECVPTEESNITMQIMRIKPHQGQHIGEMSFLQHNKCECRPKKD

T2: LRP6 E1E2 protein (human, UniProt O75581 20-630, limits assumed)
T2 construct: domain: E1E2
T2 sequence (looked up): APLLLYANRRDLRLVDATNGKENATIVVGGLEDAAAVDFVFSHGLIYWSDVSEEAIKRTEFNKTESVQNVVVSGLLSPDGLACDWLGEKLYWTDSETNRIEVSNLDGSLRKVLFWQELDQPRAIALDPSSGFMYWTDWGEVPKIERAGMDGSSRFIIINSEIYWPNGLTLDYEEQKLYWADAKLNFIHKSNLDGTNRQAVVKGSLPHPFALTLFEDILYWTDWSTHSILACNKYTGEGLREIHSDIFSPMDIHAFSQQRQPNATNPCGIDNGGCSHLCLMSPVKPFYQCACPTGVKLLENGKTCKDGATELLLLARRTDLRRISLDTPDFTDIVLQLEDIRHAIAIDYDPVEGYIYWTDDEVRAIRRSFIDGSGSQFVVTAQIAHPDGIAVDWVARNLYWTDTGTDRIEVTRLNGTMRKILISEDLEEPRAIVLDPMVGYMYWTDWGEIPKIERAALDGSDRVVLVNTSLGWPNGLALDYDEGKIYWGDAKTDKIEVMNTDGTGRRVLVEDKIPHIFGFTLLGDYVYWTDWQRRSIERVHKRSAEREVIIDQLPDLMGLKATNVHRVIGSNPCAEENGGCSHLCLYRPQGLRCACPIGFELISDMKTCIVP

B1: VEGF_CKP7.8 (designed binder)
chain: GCKNPLFNWALYCKQDSDCLAGCVCQLFDSCG
B2: VEGF_CKP7.81 (designed binder)
chain: GCLDPTVNWALFCKQDSDCLAGCVCQHYKTCG
B3: VEGF_CKP7.73 (designed binder)
chain: GCRDLTINWALFCKQDSDCLAGCVCQMFNSCG
B4: LRP6_CKP7.89 (designed binder)
chain: GCLDPSFDWALYCKQDSDCLAGCVCQLYNSCG
B5: VEGF_CKP7.78 (designed binder)
chain: GCKDTTFNWGLFCKQDSDCLAGCVCQLYQSCG
B6: VEGF_CKP7.17 (designed binder)
chain: GCQDPTVNWAVYCKQDSDCLAGCVCQFYQSCG
B7: VEGF_CKP7.46 (designed binder)
chain: B6 chain with Q3E, N8D, V11Q, F27M
B8: VEGF_CKP7.43 (designed binder)
chain: B6 chain with V7L, V11T, F27M
B9: VEGF_CKP7.35 (designed binder)
chain: B6 chain with V7F, V11E, F27M
B10: VEGF_CKP7.24 (designed binder)
chain: GCWDPTFNWALYCKQDSDCLAGCVCQMYDSCG
B11: VEGF_CKP7.19 (designed binder)
chain: B6 chain with V7F, V11E, F27L
B12: VEGF_CKP7.57 (designed binder)
chain: B10 chain with W3L, T6S, A10S
B13: VEGF_CKP7.50 (designed binder)
chain: GCQDPSLNWADYCKQDSDCLAGCVCQMHQSCG
B14: VEGF_CKP7.88 (designed binder)
chain: GCQDPKLNWAVYCKQDSDCLAGCVCQLFNSCG
B15: VEGF_CKP7.54 (designed binder)
chain: B10 chain with W3L, P5R, F7L, D29N
B16: VEGF_CKP7.2 (designed binder)
chain: GCDDPSFDWSVYCKQDSDCLAGCVCRMYDSCG
B17: VEGF_CKP9.L1.19 (designed binder)
chain: GCHRLQPLWGCKQDSDCLAGCVCHWYQSCG
B18: VEGF_CKP9.L1.76 (designed binder)
chain: B17 chain with H3D, R4L, L5M
B19: VEGF_CKP9.L1.78 (designed binder)
chain: GCNPMLPLWGCKQDSDCLAGCVCHWYQSCG
B20: VEGF_CKP9.L1.8 (designed binder)
chain: GCQVMQPAWGCKQDSDCLAGCVCHWYQSCG
B21: VEGF_CKP9.L1.2 (designed binder)
chain: B17 chain with R4L, L5F, Q6E
B22: VEGF_CKP9.L1.68 (designed binder)
chain: B17 chain with H3D, R4I, L5M
B23: VEGF_CKP9.L1.79 (designed binder)
chain: B20 chain with M5L, A8S
B24: VEGF_CKP9.L1.7 (designed binder)
chain: B20 chain with Q6R, A8F
B25: VEGF_CKP9.L1.64 (designed binder)
chain: B19 chain with P4V, M5L
B26: VEGF_CKP9.L1.57 (designed binder)
chain: B19 chain with L8F
B27: VEGF_CKP9.11 (designed binder)
chain: GCDRMQPYWGCKQDSDCLAGCVCQWYKSCG
B28: VEGF_CKP9.72 (designed binder)
chain: GCRLLEPSWGCKQDSDCLAGCVCQWYQSCG
B29: VEGF_CKP9.71 (designed binder)
chain: B17 chain with H3Q, R4L, H24R
B30: VEGF_CKP9.69 (designed binder)
chain: GCALLQPLWGCKQDSDCLAGCVCRWYNSCG
B31: VEGF_CKP9.47 (designed binder)
chain: GCKIMQPLWGCKQDSDCLAGCVCLWYDSCG
B32: VEGF_CKP9.51 (designed binder)
chain: B19 chain with P4L, L6H, L8F
B33: VEGF_CKP9.14 (designed binder)
chain: B30 chain with A3K, L8M, N27Q
B34: VEGF_CKP9.76 (designed binder)
chain: B30 chain with A3H, Q6L, N27H
B35: VEGF_CKP9.9 (designed binder)
chain: GCQLLEPMWGCKQDSDCLAGCVCHWYNSCG
B36: LRP6_CKP13 (designed binder)
chain: GCVNSVKRCKQDSDCLAGCVCSRGVNCG
B37: LRP6_CKP16 (designed binder)
chain: GCSRNSIKCKQDSDCLAGCVCASGSSCG
B38: LRP6_CKP22 (designed binder)
chain: GCANRVKRTSCKQDSDCLAGCVCGPNGFCG
B39: LRP6_CKP17 (designed binder)
chain: GCSNYVKRCKQDSDCLAGCVCSPGGRCG
B40: LRP6_CKP20 (designed binder)
chain: GCENRTKGCKQDSDCLAGCVCGFRGTCG
B41: LRP6_CKP11 (designed binder)
chain: GCRSNRIRCKQDSDCLAGCVCYGHGDCG
B42: LRP6_CKP12 (designed binder)
chain: GCRSNKLREARGCKQDSDCLAGCVCGSRQDCG
B43: LRP6_CKP14 (designed binder)
chain: GCGSNKIRPRCKQDSDCLAGCVCGPNDFCG
B44: LRP6_CKP15 (designed binder)
chain: GCNRIRNSCKQDSDCLAGCVCGRGDYCG
B45: LRP6_CKP21 (designed binder)
chain: GCGNKIRACKQDSDCLAGCVCRDRVGCG

Biological target: T1, hVEGF-A (8-109)
Assay: spot phage ELISA
Experimental: (§1) After four rounds of binding selection, individual phage clones were picked and inoculated into 450 μl 2YT media containing 50 µg/ml Carbenecillin and M13-KO7 helper phage in 96-well blocks, which were grown at 37° C. overnight. […] The plates were washed and bound phage was detected with anti-M13-HRP followed by TMB substrate. In these assays, phage binding to BSA alone was tested in parallel to assess background binding. […] Positive clones were subjected to DNA sequence analysis.

Binder | ELISA | S/N vs BSA
B1 | 0.5 | 7.5
B2 | 1.1 | 18.6
B3 | 1.2 | 19.2
B4 | 0.5 | 8.1
B5 | 0.7 | 11.8
B6 | 0.8 | 13.4
B7 | 0.3 | 4.9
B8 | 0.5 | 6.3
B9 | 0.6 | 10.6
B10 | 0.8 | 13.4
B11 | 0.6 | 11.1
B12 | 1 | 17.4
B13 | 0.8 | 14.3
B14 | 0.5 | 7.7
B15 | 0.5 | 9.3
B16 | 1.2 | 21.5

Biological target: T1, hVEGF-A (8-109)
Assay: spot phage ELISA
Remark: another data set of the same source
Experimental: as §1

Binder | ELISA | S/N vs BSA
B17 | 1.4 | 11.6
B18 | 2.5 | 17.4
B19 | 3 | 25.1
B20 | 1.2 | 12.8
B21 | 1.6 | 12.5
B22 | 2 | 23.2
B23 | 1.2 | 10
B24 | 1.5 | 8.9
B25 | 2.3 | 19.9
B26 | 3.7 | 31.8

Biological target: T1, hVEGF-A (8-109)
Assay: spot phage ELISA
Remark: another data set of the same source
Experimental: as §1

Binder | ELISA | S/N vs BSA
B27 | 1.1 | 14.1
B28 | 0.6 | 10
B29 | 1 | 16.5
B30 | 1 | 14.3
B31 | 1 | 14.6
B32 | 1 | 11
B33 | 2 | 30.1
B34 | 1.3 | 15.5
B35 | 1.1 | 19.7

Biological target: T2, LRP6 E1E2 protein
Assay: spot phage ELISA

Binder | ELISA | S/N vs BSA
B36 | 3.28 | 37.8
B37 | 3.36 | 31.1
B38 | 3.43 | 42.9
B39 | 3.09 | 35.9
B40 | 3.1 | 38.7
B41 | 2.65 | 36.8
B42 | 0.6 | 6.78
B43 | 3.18 | 43.5
B44 | 2.03 | 26.3
B45 | 2.8 | 33.7
